These results are taken from patent US20240287172A1 (SCIRHOM, published 2024).

One experiment concerns the target T1, hiR2-FL-V524A-T7 (human, UniProt Q6PJF5 1-856).
T1 sequence: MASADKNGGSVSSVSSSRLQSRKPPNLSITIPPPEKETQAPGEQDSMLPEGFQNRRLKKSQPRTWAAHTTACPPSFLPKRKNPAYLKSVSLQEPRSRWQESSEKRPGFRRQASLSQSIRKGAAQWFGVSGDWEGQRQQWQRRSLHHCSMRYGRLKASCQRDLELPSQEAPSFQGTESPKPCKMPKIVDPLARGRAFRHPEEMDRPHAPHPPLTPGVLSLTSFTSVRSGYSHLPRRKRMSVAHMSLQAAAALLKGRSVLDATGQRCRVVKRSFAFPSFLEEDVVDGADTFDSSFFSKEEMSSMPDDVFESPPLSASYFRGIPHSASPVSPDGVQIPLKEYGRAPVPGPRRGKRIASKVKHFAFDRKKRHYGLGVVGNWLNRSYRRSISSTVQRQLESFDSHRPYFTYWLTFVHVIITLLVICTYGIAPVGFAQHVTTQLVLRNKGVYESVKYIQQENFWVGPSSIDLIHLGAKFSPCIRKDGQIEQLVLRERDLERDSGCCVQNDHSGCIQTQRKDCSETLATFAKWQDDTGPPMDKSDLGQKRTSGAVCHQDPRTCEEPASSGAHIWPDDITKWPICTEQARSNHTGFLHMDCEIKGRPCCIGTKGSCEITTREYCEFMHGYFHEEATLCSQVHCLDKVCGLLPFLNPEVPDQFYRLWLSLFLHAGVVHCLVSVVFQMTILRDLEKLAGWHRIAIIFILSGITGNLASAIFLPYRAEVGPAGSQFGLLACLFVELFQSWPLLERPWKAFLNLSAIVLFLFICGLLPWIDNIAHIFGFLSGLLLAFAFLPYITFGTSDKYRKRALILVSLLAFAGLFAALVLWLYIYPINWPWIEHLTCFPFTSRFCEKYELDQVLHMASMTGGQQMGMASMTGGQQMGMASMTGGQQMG
In words: FACS on MEF-DKO cells expressing the variant, 3 µg/ml antibody. The method, boiled down: (§1)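 Cells stained with purified antibody at 3 μg/ml for 1 h on ice, then with PE-conjugated goat anti-mouse IgG F(ab′)2 (1:100) for 1 h on ice in the dark. Binding read by flow cytometry; buffer-only staining as control.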

Another experiment has as its target T2, hiR2-FL-T578A-T7 (human, UniProt Q6PJF5 1-856).
T2 sequence: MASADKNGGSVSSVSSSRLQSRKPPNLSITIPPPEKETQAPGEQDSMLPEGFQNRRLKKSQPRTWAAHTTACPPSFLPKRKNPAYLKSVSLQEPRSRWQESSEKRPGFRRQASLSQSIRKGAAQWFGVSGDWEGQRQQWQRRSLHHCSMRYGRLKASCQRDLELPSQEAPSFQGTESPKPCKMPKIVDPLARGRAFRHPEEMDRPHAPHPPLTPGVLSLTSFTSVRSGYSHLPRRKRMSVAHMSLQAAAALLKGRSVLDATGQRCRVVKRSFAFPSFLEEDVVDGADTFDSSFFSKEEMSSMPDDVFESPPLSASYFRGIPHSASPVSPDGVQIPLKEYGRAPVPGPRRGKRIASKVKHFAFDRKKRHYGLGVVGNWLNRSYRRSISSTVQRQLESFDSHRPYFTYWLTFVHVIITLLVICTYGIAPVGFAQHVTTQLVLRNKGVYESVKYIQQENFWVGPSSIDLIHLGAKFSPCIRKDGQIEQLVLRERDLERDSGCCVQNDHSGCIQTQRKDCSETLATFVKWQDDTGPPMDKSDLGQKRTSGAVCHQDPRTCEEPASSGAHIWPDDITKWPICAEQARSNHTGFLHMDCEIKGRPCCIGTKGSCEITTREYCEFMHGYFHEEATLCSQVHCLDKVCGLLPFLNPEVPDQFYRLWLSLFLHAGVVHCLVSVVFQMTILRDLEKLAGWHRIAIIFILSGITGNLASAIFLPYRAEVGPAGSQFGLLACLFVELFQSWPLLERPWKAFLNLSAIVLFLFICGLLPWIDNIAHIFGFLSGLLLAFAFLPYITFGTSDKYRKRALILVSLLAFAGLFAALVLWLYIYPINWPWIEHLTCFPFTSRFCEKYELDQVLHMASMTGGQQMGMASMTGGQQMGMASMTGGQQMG
The experiment is described as above. The method, boiled down: as §1

Where only a bound is given, the exact number is not on record here.

B1: antibody 50 (antibody, V domains shown)
VH: QVQLQQSGAELVRPGASVKVSCKASGYAFSNYLIEWVKQRPGQGLEWIGVINPGSGFTKYNEKFKGKATLTADKSSSTAYMQLSSLTSEDSAVYFCARGLYRAMDYWGQGTSVTVSS
VL: DIQMTQSPASQSASLGESVTITCLASQTIGTWLAWYQQKPGKSPQLLIYAAASLADGVPSRFSGGGSGTKFSFKISSLQAEDFVNYYCQQIYSTPYTFGGGTKLEIK
notes: mouse IgG, kappa light chain; also called clone #50; purified antibody 50
For B1, in the experiment with hiR2-FL-V524A-T7, the “loss of binding vs wild type” value is at least 30%.

B2: antibody 3 (antibody, V domains shown)
VH: QVTLKESGPGILQPSQTLSLTCSFSGFSLTTFAMGIGWVRQPSGKGLEWLAHIWWDGEKYNNPVLKSRLTISKDTSKNQVFLRIANVDTPDTATYYCARISSIYYIIDNWGQGTSVTVSS
VL: DIVLTQSPATLSVTPGHSVSLSCRASQSISNNLHWYQKKSHESPRLLIKYVSQSISGIPSRFSGSGSGTDFTLSINSVETEDFGMYFCQQSYNWPLTFGAGTKLELK
notes: mouse IgG, kappa light chain; also called clone #3; purified antibody 3
In the case of B2, in the experiment with hiR2-FL-T578A-T7, the “loss of binding vs wild type” value was at least 30%.
